Molecular target: 4-1BB receptor (human) (UniProt Q07011)
Assay: ELISA; antigen (4-1BB 0.5 µg/mL in carbonate buffer; BSA or S100P for cross-reactivity) adsorbed on the plate, 37 °C 1 h; blocked with 1% milk powder; culture fluid with VHH mixed 1:1 with 2% milk powder, 1 h 37 °C; detected by 9E10 anti-myc and an HRP conjugate, TMB, 450 nm; 2 technical …

Chain of UniProt Q07011 (Q07011 24-255): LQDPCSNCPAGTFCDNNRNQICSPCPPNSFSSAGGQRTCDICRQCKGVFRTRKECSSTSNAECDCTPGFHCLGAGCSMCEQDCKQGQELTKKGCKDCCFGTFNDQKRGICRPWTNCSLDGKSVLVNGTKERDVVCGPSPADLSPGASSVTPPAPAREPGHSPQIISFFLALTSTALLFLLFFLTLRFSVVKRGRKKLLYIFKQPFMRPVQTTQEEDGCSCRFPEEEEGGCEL

ELISA signal intensity, fold lower than the positive control: 10 fold
B1: VHH_11 (VHH)
VHH: QVQLVESGGGLVQPGGSLRLSCAASGYSYYYYSMGWFRQAPGQGTEFVAAISSYYYSSYYADSVKGRFTISRDNSKNTLYLQMNSLRAEDTAVYYCAASYYSGSYYSGFDYWGQGTQVTVS

Source: publication PMC12259950
